According to patent US20240327535A1 (EISAI R AND D MANAGEMENT, published 2024):
Where a chain is given by its changes, count along the chain named.

T1: human BCMA on NCI-H929, OPM2 and Raji cells (human, UniProt Q02223 1-184)
T1 construct: endogenous BCMA of human cell lines; also called TNFRSF17; CD269
T1 chain: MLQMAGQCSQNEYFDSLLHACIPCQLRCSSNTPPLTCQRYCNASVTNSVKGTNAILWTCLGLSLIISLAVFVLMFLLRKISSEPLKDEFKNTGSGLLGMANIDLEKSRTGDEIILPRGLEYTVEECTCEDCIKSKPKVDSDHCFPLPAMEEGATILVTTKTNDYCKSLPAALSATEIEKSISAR

T2: extracellular domain of human BCMA (human, UniProt Q02223 1-54)
T2 construct: amine-linked to Octet AR2G tips; also called hsBCMA; BCMA (human)
T2 sequence: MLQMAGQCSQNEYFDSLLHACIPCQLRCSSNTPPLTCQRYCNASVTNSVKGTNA

B1: AB200-ADL1-D12-05 (antibody, human IgG1, kappa, V domains shown)
VH: QVQLVQSGAEVKKPGSSVKVSCKASGGTFSNYWMHWVRQAPGQGLEWMGATYRGHSDTYYNQKFKGRVTITADKSTSTAYMELSSLRSEDTAVYYCARGAIYDGYDVLDNWGQGTLVTVSS
VL: DIQMTQSPSSLSASVGDRVTITCSASQDISNYLNWYQQKPGKAPKLLIYYTSNLHSGVPSRFSGSGSGTDFTLTISSLQPEDFATYYCQQYRKLPWTFGQGTKLEIKR
modifications: ADL1-D12 linker-payload on cysteine residues of the antibody, DAR 4.24
notes: antibody-drug conjugate
B2: AB213-ADL1-D2-02 (antibody, human IgG1, kappa, V domains shown)
VH: B1 VH with S30T, M34I, A50G, G54S, D57T, G66S, I101V, D103H, L108I
VL: B1 VL with S24R, D28S, N31S, Y50A, H55Q, S56I, Y91F, K93R
modifications: ADL1-D2 linker-payload on cysteine residues of the antibody, DAR 4.18
B3: AB200-(2Vk35)_R2-VH-v56 (Fab, V domains shown)
VH: B1 VH with T28S, M34I, G54I, N61A, F64Y, G66S, Y102F, D103H, L108I
VL: B1 VL with S24R, D28S, N31S, L33I, Y50A, H55Q, K93R, L94I
B4: AB200-(2Vk35)_R2-VH-v48 (Fab, V domains shown)
VH: B1 VH with F29Y, M34I, A50G, G54I, D57T, G66S, D103H, Y105F, L108I
VL: B1 VL with S24R, D28S, N31S, L33I, Y50A, H55Q, K93R, L94I
B5: AB200-(2Vk35)_R2-VH-v62 (Fab, V domains shown)
VH: B1 VH with M34I, A50G, G54I, Q62E, G66S, D103H, L108I, D109E
VL: B1 VL with S24R, D28S, N31S, L33I, Y50A, H55Q, K93R, L94I
B6: AB200-(2Vk35)_R2-VH-v52 (Fab, V domains shown)
VH: B1 VH with T28S, M34I, G54I, H55Q, N61A, G66S, Y102F, D103H, L108I
VL: B1 VL with S24R, D28S, N31S, L33I, Y50A, H55Q, K93R, L94I
B7: AB200-(2Vk35)_R2-VH-v55 (Fab, V domains shown)
VH: B1 VH with T28S, M34I, G54I, D57T, F64Y, G66S, I101V, D103H, L108I
VL: B1 VL with S24R, D28S, N31S, L33I, Y50A, H55Q, K93R, L94I
B8: AB200-(2Vk35)_R2-VH-v63 (Fab, V domains shown)
VH: B1 VH with M34I, G54I, D57T, Y59N, G66S, K74E, I101V, D103H, L108I
VL: B1 VL with S24R, D28S, N31S, L33I, Y50A, H55Q, K93R, L94I
B9: AB200-(2Vk35)_R2-VH-v69 (Fab, V domains shown)
VH: B1 VH with M34I, G54I, H55Q, Y59N, G66S, I101V, D103H, L108I
VL: B1 VL with S24R, D28S, N31S, L33I, Y50A, H55Q, K93R, L94I
B10: AB200-(2Vk35)_R2-VH-v49 (Fab, V domains shown)
VH: B1 VH with F29Y, M34I, G54I, H55Q, D57T, G66S, D103H, L108I, D109E
VL: B1 VL with S24R, D28S, N31S, L33I, Y50A, H55Q, K93R, L94I
B11: AB200-(2Vk35)_R2-VH-v76 (Fab, V domains shown)
VH: B1 VH with M34I, G54I, H55Q, Q62E, G66S, D103H, Y105F, L108I
VL: B1 VL with S24R, D28S, N31S, L33I, Y50A, H55Q, K93R, L94I
B12: AB218-ADL1-D2-02 (antibody, human IgG1, kappa, V domains shown)
VH: B1 VH with M34I, G54S, H55Q, D57T, G66S, I101V, D103H, L108I
VL: B1 VL with S24R, D28S, N31S, Y50A, H55Q, S56I, Y91F, K93R
modifications: ADL1-D2 linker-payload on cysteine residues of the antibody, DAR 3.77
B13: AB200-(2Vk44)_R2-VH-v22 (Fab, V domains shown)
VH: B1 VH with M34I, A50G, G54S, H55Q, G66S, I101V, D103H, L108I
VL: B1 VL with S24R, D28S, N31S, L33I, Y50A, H55Q, S56I, K93R, T97S
B14: AB200-(2Vk44)_R2-VH-v24 (Fab, V domains shown)
VH: B1 VH with M34I, A50G, G54S, Q62E, G66S, Y102F, D103H, L108I
VL: B1 VL with S24R, D28S, N31S, L33I, Y50A, H55Q, S56I, K93R, T97S
B15: AB200-(2Vk44)_R2-VH-v44 (Fab, V domains shown)
VH: B1 VH with S30T, M34I, G54I, Y59N, N61A, G66S, D103H, L108I, D109E
VL: B1 VL with S24R, D28S, N31S, L33I, Y50A, H55Q, S56I, K93R, T97S
B16: AB200-(2Vk44)_R2-VH-v7 (Fab, V domains shown)
VH: B1 VH with F29Y, M34I, G54S, D57T, N61A, G66S, D103H, Y105F, L108I
VL: B1 VL with S24R, D28S, N31S, L33I, Y50A, H55Q, S56I, K93R, T97S
B17: AB200-(2Vk44)_R2-VH-v58 (Fab, V domains shown)
VH: B1 VH with M34I, A50G, G54I, Y59N, G66S, D103H, Y105F, L108I
VL: B1 VL with S24R, D28S, N31S, L33I, Y50A, H55Q, S56I, K93R, T97S
B18: AB200-(2Vk44)_R2-VH-v68 (Fab, V domains shown)
VH: B1 VH with M34I, G54I, Y59N, N61A, G66S, K74E, D103H, Y105F, L108I
VL: B1 VL with S24R, D28S, N31S, L33I, Y50A, H55Q, S56I, K93R, T97S
B19: AB200-(2Vk44)_R2-VH-v28 (Fab, V domains shown)
VH: B1 VH with M34I, G54S, D57T, F64Y, G66S, D103H, Y105F, L108I
VL: B1 VL with S24R, D28S, N31S, L33I, Y50A, H55Q, S56I, K93R, T97S
B20: AB200-(2Vk44)_R2-VH-v64 (Fab, V domains shown)
VH: B1 VH with M34I, G54I, D57T, N61A, G66S, D103H, Y105F, L108I
VL: B1 VL with S24R, D28S, N31S, L33I, Y50A, H55Q, S56I, K93R, T97S
B21: AB200-(2Vk44)_R2-VH-v72 (Fab, V domains shown)
VH: B1 VH with M34I, G54I, H55Q, N61A, G66S, I101V, D103H, L108I
VL: B1 VL with S24R, D28S, N31S, L33I, Y50A, H55Q, S56I, K93R, T97S
B22: AB200-(2Vk44)_R2-VH-v41 (Fab, V domains shown)
VH: B1 VH with S30T, M34I, A50G, G54I, Q62E, G66S, D103H, Y105F, L108I
VL: B1 VL with S24R, D28S, N31S, L33I, Y50A, H55Q, S56I, K93R, T97S
B23: AB200-(2Vk44)_R2-VH-v1 (Fab, V domains shown)
VH: B1 VH with S30T, M34I, A50G, G54S, F64Y, G66S, D103H, L108I, D109E
VL: B1 VL with S24R, D28S, N31S, L33I, Y50A, H55Q, S56I, K93R, T97S
B24: AB200-(2Vk44)_R2-VH-v70 (Fab, V domains shown)
VH: B1 VH with M34I, G54I, Y59N, F64Y, G66S, I101V, D103H, L108I
VL: B1 VL with S24R, D28S, N31S, L33I, Y50A, H55Q, S56I, K93R, T97S
B25: AB200-(2Vk44)_R2-VH-v14 (Fab, V domains shown)
VH: B1 VH with T28S, M34I, G54S, D57T, Q62E, G66S, I101V, D103H, L108I
VL: B1 VL with S24R, D28S, N31S, L33I, Y50A, H55Q, S56I, K93R, T97S
B26: AB200-(2Vk44)_R2-VH-v53 (Fab, V domains shown)
VH: B1 VH with T28S, M34I, G54I, Y59N, F64Y, G66S, Y102F, D103H, L108I
VL: B1 VL with S24R, D28S, N31S, L33I, Y50A, H55Q, S56I, K93R, T97S
B27: AB200-(2Vk44)_R2-VH-v61 (Fab, V domains shown)
VH: B1 VH with M34I, A50G, G54I, F64Y, G66S, D103H, L108I, D109E
VL: B1 VL with S24R, D28S, N31S, L33I, Y50A, H55Q, S56I, K93R, T97S
B28: AB200-(2Vk44)_R2-VH-v54 (Fab, V domains shown)
VH: B1 VH with T28S, M34I, G54I, Y59N, Q62E, G66S, D103H, L108I, D109E
VL: B1 VL with S24R, D28S, N31S, L33I, Y50A, H55Q, S56I, K93R, T97S
B29: AB200-(2Vk44)_R2-VH-v60 (Fab, V domains shown)
VH: B1 VH with M34I, A50G, G54I, H55Q, G66S, D103H, L108I, D109E
VL: B1 VL with S24R, D28S, N31S, L33I, Y50A, H55Q, S56I, K93R, T97S
B30: AB200-(2Vk44)_R2-VH-v35 (Fab, V domains shown)
VH: B1 VH with M34I, G54S, N61A, F64Y, G66S, D103H, L108I, D109E
VL: B1 VL with S24R, D28S, N31S, L33I, Y50A, H55Q, S56I, K93R, T97S
B31: AB212-ADL1-D2-02 (antibody, human IgG1, kappa, V domains shown)
VH: B1 VH with M34I, A50G, G54S, Y59N, G66S, D103H, L108I, D109E
VL: B1 VL with S24R, D28S, N31S, Y50A, H55Q, S56I, Y91F, K93R
modifications: ADL1-D2 linker-payload on cysteine residues of the antibody, DAR 5.17

Target: T1, human BCMA on NCI-H929, OPM2 and Raji …
Test: flow cytometry on NCI-H929 cells (BCMA high), fluorescent anti-human IgG1 secondary antibody, MFI against test article concentration

Binder | EC50 (read off the curve)
B1 | ~9 nM
B2 | ~0.6 nM

Target: T3, extracellular domain of rhesus monkey BCMA (rhesus monkey, UniProt F7FFA0 1-53)
T3 construct: extracellular domain; also called RhBCMA
T3 sequence (F7FFA0 entry or part of it): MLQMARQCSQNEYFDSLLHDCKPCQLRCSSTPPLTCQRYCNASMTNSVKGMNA
Test: Octet BLI; Fab 200 nM

Binder | Kd
B3 | 44.7 nM
B4 | 52 nM
B5 | 49 nM
B6 | 25.7 nM
B7 | 43.1 nM
B8 | 9.56 nM
B9 | 46.6 nM
B10 | 126 nM
B11 | 8.46 nM

Target: T2, extracellular domain of human BCMA
Test: Octet BLI; Fab 200 nM

Binder | Kd
B3 | 11.3 nM
B4 | 36.6 nM
B5 | 14.5 nM
B6 | 6.24 nM
B7 | 19.7 nM
B8 | 27.1 nM
B9 | 16.2 nM
B10 | 63.2 nM
B11 | 1.93 nM

Target: T1, human BCMA on NCI-H929, OPM2 and Raji …
Test: cell-based or functional assay

Binder | GI50 (nM) OPM2.1, cell viability | LD50 (nM) OPM2.1, cell viability
B12 | 0.985 nM | 19.8 nM

Target: T3, extracellular domain of rhesus monkey …
Test: Octet BLI; Fab 200 nM
Remark: another data set of the same source

Binder | Kd
B13 | 11.1 nM
B14 | 20.8 nM
B15 | 290 nM
B16 | 71.7 nM
B17 | 52.6 nM
B18 | 110 nM
B19 | 20.9 nM
B20 | 36.5 nM
B21 | 12.4 nM
B22 | 12.6 nM
B23 | 40 nM
B24 | 35.8 nM
B25 | 16.9 nM
B26 | 103 nM
B27 | 59.6 nM
B28 | 151 nM
B29 | 38.6 nM
B30 | 52.8 nM

Target: T2, extracellular domain of human BCMA
Test: Octet BLI; Fab 200 nM
Remark: another data set of the same source

Binder | Kd
B13 | 2.31 nM
B14 | 6.44 nM
B15 | 86.4 nM
B16 | 40.6 nM
B17 | 27.2 nM
B18 | 60.3 nM
B19 | 10.9 nM
B20 | 22.1 nM
B21 | 2.16 nM
B22 | 3.73 nM
B23 | 11.8 nM
B24 | 12.4 nM
B25 | 7.55 nM
B26 | 52.5 nM
B27 | 19.2 nM
B28 | 68.8 nM
B29 | 11.1 nM
B30 | 16.2 nM

Target: T1, human BCMA on NCI-H929, OPM2 and Raji …
Test: flow cytometry, NCI-H929 cells

Binder | Kd
B31 | 1.3 nM
B1 | 9.7 nM
B12 | 0.333 nM
B2 | 0.5 nM
